Measurements as given in the supplement of paper PMC10724198.
± gives the standard deviation of the averaged measurements.

Legend:
Experiment in all cases: protein stability index of tFT-peptide fusion (C-terminal peptide) (PSI (0-1 scale)); higher = more stable (slower turnover)
[1] = test system: Saccharomyces cerevisiae; conditions: temperature: 30 C
Protocol: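 MPS profiling in S. cerevisiae of the yeast C-terminome library: the last 12 aa of each annotated ORF are fused to the C-terminus of a sfGFP-mCherry timer, after a GGGS linker. Cells are FACS-sorted into 8 mCherry/sfGFP bins and deep-sequenced. PSI runs from 0 (unstable) to 1 (stable); wild type and das1Δ backgrounds, two technical replicates each.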

[2] = test system: Saccharomyces cerevisiae
Protocol: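 MPS profiling in S. cerevisiae of the tFT-X12 degron library: putative degron peptides plus stable controls, 12 aa, fused to the C-terminus of a sfGFP-mCherry timer. Cells are FACS-sorted into 8 mCherry/sfGFP bins and deep-sequenced. PSI runs from 0 (unstable) to 1 (stable). Backgrounds are wild type, das1Δ and doa10Δ at 30 °C, and wild type, das1Δ, cdc34-1 and cdc53-1 at 37 °C; 2-3 technical replicates each.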

[3] = test system: Saccharomyces cerevisiae; conditions: genetic background: wild type; temperature: 30 C
[4] = genetic background: das1 deletion
[5] = genetic background: cdc34-1, temperature: 37 C
[6] = genetic background: cdc53-1, temperature: 37 C
[7] = genetic background: das1 deletion, temperature: 30 C
[8] = genetic background: das1 deletion, temperature: 37 C
[9] = genetic background: doa10 deletion, temperature: 30 C
[10] = genetic background: wild type, temperature: 30 C
[11] = genetic background: wild type, temperature: 37 C

Sequence	protein stability index [1, 4]	protein stability index ([1]; genetic background: wild type)	protein stability index [2, 5]	protein stability index [2, 6]	protein stability index [2, 7]	protein stability index [2, 8]	protein stability index [2, 9]	protein stability index [2, 10]	protein stability index [2, 11]	protein stability index [3]
KNFRNQYSLHPP [YHR095W C-terminal 12 aa]	0.7047 ± 0.0045	0.6752 ± 0.0034	–	–	–	–	–	–	–	–
NRLKGQNSHQQR [RGS2 C-terminal 12 aa]	0.7072 ± 0.0026	0.726 ± 0.035	–	–	–	–	–	–	–	–
LPRDSAMSAPDI [YMR085W C-terminal 12 aa]	0.7049 ± 0.001	0.7081 ± 0.0025	–	–	–	–	–	–	–	–
KIYMANAPPPPV [VPS54 C-terminal 12 aa]	0.706 ± 0.013	0.668 ± 0.02	–	–	–	–	–	–	–	–
WQDFVPDEHISQ [VPS501 C-terminal 12 aa]	0.736 ± 0.0053	0.792 ± 0.028	–	–	–	–	–	–	–	–
LFVMVSVSGLVV	–	–	0.0501 ± 0.016	0.0999 ± 0.071	0.159 ± 0.031	0.255 ± 0.0059	0.145 ± 0.0021	0.16 ± 0.026	0.235 ± 0.0073	0.261 ± 0.017
IYFFVLRLRLCG	–	–	0.278 ± 0.004	0.291 ± 0.021	0.235 ± 0.029	0.428 ± 0.0065	0.16 ± 0.0036	0.162 ± 0.015	0.253 ± 0.0032	0.233 ± 0.1
LRVAWVCISIVA	–	–	0.0375 ± 0.005	0.0899 ± 0.006	0.0876 ± 0.023	0.164 ± 0.0029	0.0363 ± 0.011	0.0495 ± 0.015	0.0664 ± 0.0091	0.117 ± 0.027
FQWILYIAKRVV	–	–	0.556 ± 0.095	0.671 ± 0.04	0.473 ± 0.036	0.603 ± 0.0069	0.259 ± 0.059	0.261 ± 0.044	0.442 ± 0.051	0.338 ± 0.021
FCRLTFCFFAFL	–	–	0.573 ± 0.051	0.646 ± 0.0074	0.499 ± 0.019	0.641 ± 0.0092	0.446 ± 0.017	0.438 ± 0.014	0.5586 ± 0.00064	0.47 ± 0.035
FWWVGCGWCRWG	–	–	0.619 ± 0.019	0.73 ± 0.023	0.602 ± 0.036	0.708 ± 0.011	0.2446 ± 0.0022	0.269 ± 0.025	0.4351 ± 0.00096	0.378 ± 0.011
VGGGCVVVVRWG	–	–	0.589 ± 0.044	0.615 ± 0.02	0.485 ± 0.019	0.619 ± 0.009	0.477 ± 0.022	0.475 ± 0.012	0.594 ± 0.0083	0.52 ± 0.035
SCFRSLAVYFLC	–	–	0.333 ± 0.025	0.624 ± 0.02	0.603 ± 0.033	0.678 ± 0.01	0.0706 ± 0.0018	0.07 ± 0.015	0.0763 ± 0.0025	0.155 ± 0.032
RRRRHVDHSTQR	–	–	0.495 ± 0.04	0.572 ± 0.0085	0.542 ± 0.011	0.582 ± 0.011	0.557 ± 0.038	0.554 ± 0.045	0.5704 ± 0.0037	0.4737 ± 0.0036
RHRGHVRLALLN	–	–	0.7 ± 0.079	0.845 ± 0.041	0.772 ± 0.013	0.791 ± 0.061	0.233 ± 0.025	0.26 ± 0.029	0.381 ± 0.017	0.396 ± 0.0095
YCAMVAVGVVGG	–	–	0.468 ± 0.037	0.506 ± 0.025	0.329 ± 0.021	0.503 ± 0.0096	0.306 ± 0.016	0.334 ± 0.018	0.493 ± 0.012	0.509 ± 0.03
RKNIKISKAGIG	–	–	0.283 ± 0.0034	0.394 ± 0.0056	0.343 ± 0.012	0.377 ± 0.012	0.31 ± 0.0041	0.287 ± 0.021	0.332 ± 0.0074	0.279 ± 0.1
IDLVAFCTIFAL	–	–	0.4606 ± 0.0013	0.494 ± 0.032	0.363 ± 0.03	0.516 ± 0.01	0.295 ± 0.0078	0.33 ± 0.02	0.469 ± 0.018	0.3975 ± 0.0032
IILAIRLLVDTL	–	–	0.0479 ± 0.026	0.179 ± 0.012	0.146 ± 0.025	0.266 ± 0.011	0.12 ± 0.0039	0.132 ± 0.025	0.238 ± 0.026	0.248 ± 0.021
DHSWGGLLICTC	–	–	0.476 ± 0.011	0.492 ± 0.042	0.343 ± 0.049	0.546 ± 0.022	0.33 ± 0.026	0.364 ± 0.028	0.513 ± 0.017	0.473 ± 0.039

Sequence	protein stability index [1, 4]	protein stability index ([1]; genetic background: wild type)	protein stability index [2, 5]	protein stability index [2, 6]	protein stability index [2, 7]	protein stability index [2, 8]	protein stability index [2, 9]	protein stability index [2, 10]	protein stability index [2, 11]	protein stability index [3]
ALNFFSLFMLFR	–	–	0.221 ± 0.058	0.168 ± 0.07	0.325 ± 0.041	0.422 ± 0.022	0.603 ± 0.0092	0.325 ± 0.034	0.358 ± 0.022	0.398 ± 0.048
DLFVFFVFHFFL	–	–	0.425 ± 0.032	0.532 ± 0.029	0.372 ± 0.041	0.589 ± 0.013	0.377 ± 0.015	0.38 ± 0.033	0.5686 ± 0.0029	0.457 ± 0.026
PCVPRLLPLQLS	–	–	0.628 ± 0.019	0.795 ± 0.028	0.6546 ± 0.005	0.758 ± 0.03	0.216 ± 0.0089	0.233 ± 0.0069	0.363 ± 0.0044	0.252 ± 0.03
VALSILCVFFFF	–	–	0.253 ± 0.021	0.357 ± 0.01	0.272 ± 0.035	0.4457 ± 0.0032	0.24 ± 0.025	0.273 ± 0.022	0.383 ± 0.0064	0.309 ± 0.055
LGRVSAKFFCVL	–	–	0.654 ± 0.066	0.74 ± 0.013	0.646 ± 0.014	0.7237 ± 0.0027	0.13 ± 0.015	0.134 ± 0.022	0.246 ± 0.018	0.239 ± 0.022
VAFVVALSLIFL	–	–	0.327 ± 0.019	0.443 ± 0.014	0.306 ± 0.028	0.424 ± 0.0062	0.281 ± 0.019	0.333 ± 0.043	0.43 ± 0.023	0.386 ± 0.0059
VRLHIAMWLRRC	–	–	0.299 ± 0.02	0.271 ± 0.022	0.316 ± 0.027	0.414 ± 0.007	0.138 ± 0.015	0.0999 ± 0.025	0.18975 ± 1.6e-05	0.14 ± 0.027
DSSRRKRLICMN	–	–	0.611 ± 0.016	0.702 ± 0.032	0.656 ± 0.015	0.731 ± 0.008	0.18 ± 0.016	0.21 ± 0.032	0.341 ± 0.017	0.25 ± 0.093
IIIRVTILCEQF	–	–	0.135 ± 0.097	0.176 ± 0.0098	0.146 ± 0.02	0.258 ± 0.018	0.113 ± 0.0089	0.137 ± 0.0053	0.212 ± 0.011	0.241 ± 0.0066
LFTTYVFLVFFQ	–	–	0.345 ± 0.011	0.474 ± 0.0096	0.337 ± 0.027	0.511 ± 0.0082	0.2692 ± 0.0019	0.29 ± 0.018	0.4367 ± 0.0009	0.372 ± 0.012
MQFVALFLVGLL	–	–	0.465 ± 0.041	0.5087 ± 0.001	0.346 ± 0.049	0.5245 ± 0.0022	0.308 ± 0.0095	0.354 ± 0.023	0.509 ± 0.0056	0.465 ± 0.0047
FLLASSRRICCS	–	–	0.458 ± 0.0088	0.486 ± 0.029	0.365 ± 0.025	0.5347 ± 0.001	0.249 ± 0.015	0.269 ± 0.028	0.47 ± 0.013	0.391 ± 0.0082
RLVCPFYIACVW	–	–	0.623 ± 0.012	0.649 ± 0.01	0.509 ± 0.016	0.588 ± 0.014	0.468 ± 0.015	0.488 ± 0.022	0.567 ± 0.031	0.516 ± 0.027
VFFCLFWFFCSF	–	–	0.54 ± 0.009	0.571 ± 0.057	0.482 ± 0.031	0.54 ± 0.0084	0.454 ± 0.0066	0.453 ± 0.017	0.492 ± 0.012	0.51 ± 0.12
IERLRLRTRIIC	–	–	0.469 ± 0.053	0.481 ± 0.049	0.423 ± 0.021	0.542 ± 0.0096	0.127 ± 0.015	0.131 ± 0.036	0.13441 ± 5e-06	0.2349 ± 0.0012
VVWIQRTVLSLI	–	–	0.565 ± 0.038	0.603 ± 0.015	0.505 ± 0.03	0.6 ± 0.011	0.151 ± 0.0065	0.184 ± 0.027	0.327 ± 0.0052	0.27 ± 0.049
IVWVSSFVCRSV	–	–	0.508 ± 0.082	0.574 ± 0.02	0.436 ± 0.0072	0.524 ± 0.0075	0.447 ± 0.015	0.4257 ± 0.003	0.516 ± 0.025	0.43 ± 0.044
WRGALHPTPVAA	–	–	0.285 ± 0.018	0.282 ± 0.0046	0.249 ± 0.035	0.419 ± 0.0075	0.198 ± 0.0084	0.253 ± 0.029	0.4 ± 0.017	0.339 ± 0.0086
CMYTILRHKINN	–	–	0.628 ± 0.047	0.621 ± 0.075	0.649 ± 0.024	0.763 ± 0.023	0.129 ± 0.036	0.147 ± 0.058	0.279 ± 0.029	0.296 ± 0.054
